Experimental data from PMC3461841 (Journal of molecular biology, 2012).

What was measured:
[1] = molecular target: T1, human Dicer C-terminal fragment (hDcr-C: 1235-1922), bacterially expressed (human, UniProt Q9UPY3 1235-1922); experiment: SEC
T1 sequence (looked up): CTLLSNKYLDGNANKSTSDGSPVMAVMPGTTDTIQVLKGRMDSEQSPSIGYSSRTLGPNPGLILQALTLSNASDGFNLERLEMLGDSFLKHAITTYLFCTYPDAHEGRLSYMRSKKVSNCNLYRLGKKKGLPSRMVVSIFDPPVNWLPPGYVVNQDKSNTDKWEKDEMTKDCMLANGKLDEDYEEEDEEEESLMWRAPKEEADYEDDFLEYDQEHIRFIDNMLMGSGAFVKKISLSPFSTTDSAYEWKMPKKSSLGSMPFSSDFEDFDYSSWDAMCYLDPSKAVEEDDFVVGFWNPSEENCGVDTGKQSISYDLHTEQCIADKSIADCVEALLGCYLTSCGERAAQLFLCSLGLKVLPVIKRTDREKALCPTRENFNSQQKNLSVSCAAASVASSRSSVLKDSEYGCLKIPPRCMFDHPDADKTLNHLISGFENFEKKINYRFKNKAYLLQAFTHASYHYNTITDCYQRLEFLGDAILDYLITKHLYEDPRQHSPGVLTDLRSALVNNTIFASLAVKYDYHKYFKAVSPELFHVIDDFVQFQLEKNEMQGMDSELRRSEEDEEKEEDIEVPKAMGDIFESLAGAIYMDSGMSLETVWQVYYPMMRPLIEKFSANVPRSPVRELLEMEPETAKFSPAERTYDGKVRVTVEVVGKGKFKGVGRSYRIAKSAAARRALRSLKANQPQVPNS

[2] = molecular target: FL-hDicer (full-length human Dicer) (Homo sapiens, UniProt Q9UPY3 1-1922); experiment: filter binding
DP (DUF283-PAZ) = molecular target: T2, DP (DUF283-PAZ) (Homo sapiens, UniProt Q9UPY3 605-1068); experiment: filter binding
T2 sequence: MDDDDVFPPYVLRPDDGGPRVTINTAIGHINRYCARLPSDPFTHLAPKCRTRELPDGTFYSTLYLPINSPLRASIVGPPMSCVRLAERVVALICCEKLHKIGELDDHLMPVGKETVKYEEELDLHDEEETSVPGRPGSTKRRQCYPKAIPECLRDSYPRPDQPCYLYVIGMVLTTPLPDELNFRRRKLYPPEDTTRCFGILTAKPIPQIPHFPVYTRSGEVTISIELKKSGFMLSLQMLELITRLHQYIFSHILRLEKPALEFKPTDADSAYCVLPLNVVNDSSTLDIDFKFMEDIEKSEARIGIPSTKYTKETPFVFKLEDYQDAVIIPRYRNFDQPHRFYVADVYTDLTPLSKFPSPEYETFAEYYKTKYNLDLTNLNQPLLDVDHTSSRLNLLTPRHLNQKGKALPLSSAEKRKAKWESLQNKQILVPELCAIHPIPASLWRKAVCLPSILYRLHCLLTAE

MBP-ATPase/hel = molecular target: T3, MBP-ATPase/hel (Homo sapiens, UniProt Q9UPY3 1-604); experiment: filter binding
T3 sequence: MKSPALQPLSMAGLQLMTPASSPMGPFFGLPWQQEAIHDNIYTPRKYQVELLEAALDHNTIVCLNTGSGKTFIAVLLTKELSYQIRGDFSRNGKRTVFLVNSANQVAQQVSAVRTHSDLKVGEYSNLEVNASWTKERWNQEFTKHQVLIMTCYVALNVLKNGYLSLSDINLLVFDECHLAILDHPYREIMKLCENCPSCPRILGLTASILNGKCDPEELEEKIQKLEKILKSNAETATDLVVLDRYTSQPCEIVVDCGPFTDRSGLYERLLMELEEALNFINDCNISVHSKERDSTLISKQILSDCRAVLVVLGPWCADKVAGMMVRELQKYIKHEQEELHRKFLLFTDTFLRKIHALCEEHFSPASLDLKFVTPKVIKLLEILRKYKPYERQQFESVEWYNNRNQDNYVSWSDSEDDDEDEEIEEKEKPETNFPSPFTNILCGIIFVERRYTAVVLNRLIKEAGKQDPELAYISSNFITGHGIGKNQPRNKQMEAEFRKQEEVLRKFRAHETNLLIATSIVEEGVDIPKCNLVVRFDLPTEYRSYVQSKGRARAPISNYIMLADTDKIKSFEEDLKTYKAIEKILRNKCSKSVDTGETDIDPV

[3] = molecular target: T4, hDcr-C (RNase IIIa, IIIb, dsRBD) (Homo sapiens, UniProt Q9UPY3 1235-1922); experiment: filter binding
T4 sequence: T1 sequence (looked up)

[4] = molecular target: T5, ATPase/helicase domain of human Dicer (1-604) fused with maltose-binding protein (human, UniProt Q9UPY3 1-604); experiment: SEC
T5 sequence (looked up): T3 sequence

[5] = molecular target: T6, MBP-ATPase/hel domain of human Dicer with a C-terminal hemagglutinin (HA) epitope tag (human, UniProt Q9UPY3 1-604); experiment: co-IP
T6 sequence (looked up): T3 sequence

Chain of FL-hDicer (full-length human Dicer) (Q9UPY3 whole entry): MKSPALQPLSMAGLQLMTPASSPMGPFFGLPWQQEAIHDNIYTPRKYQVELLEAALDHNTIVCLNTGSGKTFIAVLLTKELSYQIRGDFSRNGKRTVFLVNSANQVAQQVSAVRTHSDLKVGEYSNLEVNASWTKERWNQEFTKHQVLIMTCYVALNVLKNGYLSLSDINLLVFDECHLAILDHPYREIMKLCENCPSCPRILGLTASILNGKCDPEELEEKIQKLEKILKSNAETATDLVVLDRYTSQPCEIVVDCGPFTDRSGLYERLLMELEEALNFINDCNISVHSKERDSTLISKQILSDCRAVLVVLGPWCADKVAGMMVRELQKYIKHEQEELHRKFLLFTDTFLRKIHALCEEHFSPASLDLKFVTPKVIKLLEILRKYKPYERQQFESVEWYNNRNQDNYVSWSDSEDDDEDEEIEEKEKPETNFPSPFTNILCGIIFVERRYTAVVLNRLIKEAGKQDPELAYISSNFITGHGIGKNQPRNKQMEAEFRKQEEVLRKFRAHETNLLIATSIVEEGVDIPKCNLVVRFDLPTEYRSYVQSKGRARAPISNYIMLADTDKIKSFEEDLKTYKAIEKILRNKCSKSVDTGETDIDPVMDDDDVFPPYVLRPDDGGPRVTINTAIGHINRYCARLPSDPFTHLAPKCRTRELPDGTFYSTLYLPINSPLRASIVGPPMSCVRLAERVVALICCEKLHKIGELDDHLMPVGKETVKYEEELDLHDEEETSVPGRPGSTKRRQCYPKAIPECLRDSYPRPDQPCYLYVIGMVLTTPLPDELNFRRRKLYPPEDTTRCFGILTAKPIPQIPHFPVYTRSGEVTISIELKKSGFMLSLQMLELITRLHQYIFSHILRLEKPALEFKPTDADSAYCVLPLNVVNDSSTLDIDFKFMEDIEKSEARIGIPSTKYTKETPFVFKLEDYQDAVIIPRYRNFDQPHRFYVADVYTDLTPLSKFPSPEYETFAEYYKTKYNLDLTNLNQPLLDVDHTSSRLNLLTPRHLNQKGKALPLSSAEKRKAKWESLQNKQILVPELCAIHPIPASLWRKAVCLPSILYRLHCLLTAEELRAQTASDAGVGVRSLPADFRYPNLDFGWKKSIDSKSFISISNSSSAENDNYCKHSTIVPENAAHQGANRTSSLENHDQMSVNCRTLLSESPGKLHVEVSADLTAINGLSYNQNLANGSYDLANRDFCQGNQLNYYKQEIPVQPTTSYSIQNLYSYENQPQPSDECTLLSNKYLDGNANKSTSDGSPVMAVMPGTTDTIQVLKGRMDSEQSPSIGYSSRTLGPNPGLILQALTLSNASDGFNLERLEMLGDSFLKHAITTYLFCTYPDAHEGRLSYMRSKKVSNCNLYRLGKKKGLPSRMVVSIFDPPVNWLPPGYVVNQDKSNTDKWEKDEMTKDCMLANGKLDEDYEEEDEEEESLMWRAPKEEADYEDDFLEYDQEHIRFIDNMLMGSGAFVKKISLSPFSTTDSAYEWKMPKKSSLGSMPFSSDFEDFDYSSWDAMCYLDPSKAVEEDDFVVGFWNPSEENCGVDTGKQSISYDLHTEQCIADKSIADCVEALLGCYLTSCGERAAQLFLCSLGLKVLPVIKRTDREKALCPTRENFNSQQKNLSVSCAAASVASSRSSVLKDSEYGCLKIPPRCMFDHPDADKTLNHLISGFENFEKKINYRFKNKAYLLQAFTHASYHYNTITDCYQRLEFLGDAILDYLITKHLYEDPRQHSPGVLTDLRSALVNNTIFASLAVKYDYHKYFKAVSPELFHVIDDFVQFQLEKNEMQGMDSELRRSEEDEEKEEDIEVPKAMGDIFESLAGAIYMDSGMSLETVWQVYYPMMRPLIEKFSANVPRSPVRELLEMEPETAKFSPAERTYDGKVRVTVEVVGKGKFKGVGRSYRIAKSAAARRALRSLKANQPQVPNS

B1: human Dicer DUF283-PAZ fragment (DP: 605-1068) (domain or fragment, UniProt Q9UPY3 605-1068, looked up)
chain: T2 sequence
Q: Does B1 bind [1]?
A: binds

B2: 21ab (siRNA/product mimic) (dsRNA)
RNA 1: UAUACAAUGUGCUAGCUUUCU
RNA 2: AAAGCUAGCACAUUGUAUAGU
Q: Which Kd [2] does the source give for B2 here?
A: 144 ± 23 nM

Q: What about the Kd (DP (DUF283-PAZ)) of the same binder?
A: 220 ± 40 nM

B3: pre-hlet-7a-1 (structured_RNA)
RNA: UGAGGUAGUAGGUUGUAUAGUUUUAGGGUCACACCCACCACUGGGAGAUAACUAUACAAUCUACUGUCUUACC
Q: Which Kd [2] does the source give for B3 here?
A: 39 ± 5 nM

Q: And the Kd (MBP-ATPase/hel)?
A: 96 ± 10 nM

Q: What about the Kd (DP (DUF283-PAZ)) of the same binder?
A: ~1000 nM

B4: 37ab (dsRNA)
RNA 1: UGAGGUAGUAGGUUGUAUAGUUUGAAAGUUCACGAUU
RNA 2: UCGUGAACUUUCAAACUAUACAACCUACUACCUCAUU
Q: What does the source list for B4?
A: Kd [2]: 53 ± 8 nM; Kd (MBP-ATPase/hel): 476 ± 30 nM; Kd (DP (DUF283-PAZ)): 200 ± 34 nM; Kd [3]: 300 ± 40 nM

B5: human TAR-RNA binding protein (hTRBP), the larger isoform TRBP2 (natural protein, UniProt Q15633-1 1-366, looked up)
chain: MSEEEQGSGTTTGCGLPSIEQMLAANPGKTPISLLQEYGTRIGKTPVYDLLKAEGQAHQPNFTFRVTVGDTSCTGQGPSKKAAKHKAAEVALKHLKGGSMLEPALEDSSSFSPLDSSLPEDIPVFTAAAAATPVPSVVLTRSPPMELQPPVSPQQSECNPVGALQELVVQKGWRLPEYTVTQESGPAHRKEFTMTCRVERFIEIGSGTSKKLAKRNAAAKMLLRVHTVPLDARDGNEVEPDDDHFSIGVGSRLDGLRNRGPGCTWDSLRNSVGEKILSLRSCSLGSLGALGPACCRVLSELSEEQAFHVSYLDIEELSLSGLCQCLVELSTQPATVCHGSATTREAARGEAARRALQYLKIMAGSK
Q: Which results are given for B5?
A: binding result [4]: binds; binding result [5]: binds
